The target in experiment [1] is human NL1(–A+B)_(ECTO), immobilised for SPR (human). The experiment can be described thus: SPR; biotinylated NL_(ECTO)-Avitag variants captured from dialysed conditioned medium on streptavidin CM5 chip (500 RU; 550 RU for the ΔSite series; 1000 RU for NL3 and NL3 Arg451Cys in the R451C series); β-NRX1_(LNS6)(±4), MDGA1_(ECTO), MDGA2_(ECTO) injected, 15 concentrations, two-fold series from 50 μM; TBS-CTB (10 mM Tris pH 7.4, 150 mM NaCl, 3 mM CaCl2, 0.005% Tween-20, 1.0 g/L BSA); equilibrium analysis, 1:1 Langmuir model. In general terms: In SPR one partner is held on a chip, and binding of the other changes the refractive index at the surface.

Experiment [2] concerns the target human NL1(–A–B)_(ECTO), biotinylated and immobilised for SPR (human). The description is as above.

Chain of human NL1(–A–B)_(ECTO), biotinylated and immobilised for SPR (human) (Q8N2Q7 whole entry): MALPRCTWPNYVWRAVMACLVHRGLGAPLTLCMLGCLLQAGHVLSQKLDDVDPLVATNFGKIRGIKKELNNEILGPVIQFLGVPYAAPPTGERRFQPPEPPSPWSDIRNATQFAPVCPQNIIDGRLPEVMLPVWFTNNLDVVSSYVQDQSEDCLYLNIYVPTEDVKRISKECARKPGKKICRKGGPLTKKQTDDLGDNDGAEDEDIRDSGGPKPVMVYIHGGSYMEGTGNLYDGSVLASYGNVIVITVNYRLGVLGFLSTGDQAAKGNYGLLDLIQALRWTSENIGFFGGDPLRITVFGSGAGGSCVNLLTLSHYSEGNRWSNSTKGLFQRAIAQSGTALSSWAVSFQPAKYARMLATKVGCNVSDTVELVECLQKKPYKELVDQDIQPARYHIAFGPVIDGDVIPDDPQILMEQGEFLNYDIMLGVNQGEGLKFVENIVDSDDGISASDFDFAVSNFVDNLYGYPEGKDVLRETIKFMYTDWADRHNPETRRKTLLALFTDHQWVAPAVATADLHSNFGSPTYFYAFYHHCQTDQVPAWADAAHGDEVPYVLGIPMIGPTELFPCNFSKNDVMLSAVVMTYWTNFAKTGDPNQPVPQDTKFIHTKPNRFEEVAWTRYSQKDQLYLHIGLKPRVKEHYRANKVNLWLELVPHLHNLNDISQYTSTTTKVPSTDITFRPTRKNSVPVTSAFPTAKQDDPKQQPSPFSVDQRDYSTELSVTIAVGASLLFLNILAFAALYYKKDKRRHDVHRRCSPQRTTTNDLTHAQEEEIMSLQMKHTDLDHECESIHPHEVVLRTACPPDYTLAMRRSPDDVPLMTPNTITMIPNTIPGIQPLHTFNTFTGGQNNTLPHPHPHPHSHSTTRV
Chain of human NL1(–A+B)_(ECTO), immobilised for SPR (human) (Q8N2Q7 whole entry): as above

B1: human MDGA1 extracellular domain (MDGA1_(ECTO); Gln19-Lys925) (domain or fragment)
chain: QGVYAPAQAQIVHAGQACVVKEDNISERVYTIREGDTLMLQCLVTGHPRPQVRWTKTAGSASDKFQETSVFNETLRIERIARTQGGRYYCKAENGVGVPAIKSIRVDVQYLDEPMLTVHQTVSDVRGNFYQEKTVFLRCTVNSNPPARFIWKRGSDTLSHSQDNGVDIYEPLYTQGETKVLKLKNLRPQDYASYTCQVSVRNVCGIPDKAITFRLTNTTAPPALKLSVNETLVVNPGENVTVQCLLTGGDPLPQLQWSHGPGPLPLGALAQGGTLSIPSVQARDSGYYNCTATNNVGNPAKKTVNLLVRSMKNATFQITPDVIKESENIQLGQDLKLSCHVDAVPQEKVTYQWFKNGKPARMSKRLLVTRNDPELPAVTSSLELIDLHFSDYGTYLCMASFPGAPVPDLSVEVNISSETVPPTISVPKGRAVVTVREGSPAELQCEVRGKPRPPVLWSRVDKEAALLPSGLPLEETPDGKLRLERVSRDMSGTYRCQTARYNGFNVRPREAQVQLNVQFPPEVEPSSQDVRQALGRPVLLRCSLLRGSPQRIASAVWRFKGQLLPPPPVVPAAAEAPDHAELRLDAVTRDSSGSYECSVSNDVGSAACLFQVSAKAYSPEFYFDTPNPTRSHKLSKNYSYVLQWTQREPDAVDPVLNYRLSIRQLNQHNAVVKAIPVRRVEKGQLLEYILTDLRVPHSYEVRLTPYTTFGAGDMASRIIHYTEPINSPNLSDNTCHFEDEKICGYTQDLTDNFDWTRQNALTQNPKRSPNTGPPTDISGTPEGYYMFIETSRPRELGDRARLVSPLYNASAKFYCVSFFYHMYGKHIGSLNLLVRSRNKGALDTHAWSLSGNKGNVWQQAHVPISPSGPFQIIFEGVRGPGYLGDIAIDDVTLKKGECPRKQTDPNK
One may read the Kd as a measure of binding affinity in units of concentration. A low value points to higher affinity. B1 had a fold weaker than with NL1(–A–B) (ECTO) in experiment [1] of 7 fold. This molecule had a Kd in experiment [2] of 2 µM.

B2: human MDGA2 extracellular domain (MDGA2_(ECTO); Gln21-Lys927) (domain or fragment)
chain: QGVYAPPTVRIVHSGLACNIEEERYSERVYTIREGETLELTCLVTGHPRPQIRWTKTAGSASDRFQDSSVFNETLRITNIQRHQGGRYYCKAENGLGSPAIKSIRVDVYYLDDPVVTVHQSIGEAKEQFYYERTVFLRCVANSNPPVRYSWRRGQEVLLQGSDKGVEIYEPFFTQGETKILKLKNLRPQDYANYSCIASVRNVCNIPDKMVSFRLSNKTASPSIKLLVDDPIVVNPGEAITLVCVTTGGEPAPSLTWVRSFGTLPEKTVLNGGTLTIPAITSDDAGTYSCIANNNVGNPAKKSTNIIVRALKKGRFWITPDPYHKDDNIQIGREVKISCQVEAVPSEELTFSWFKNGRPLRSSERMVITQTDPDVSPGTTNLDIIDLKFTDFGTYTCVASLKGGGISDISIDVNISSSTVPPNLTVPQEKSPLVTREGDTIELQCQVTGKPKPIILWSRADKEVAMPDGSMQMESYDGTLRIVNVSREMSGMYRCQTSQYNGFNVKPREALVQLIVQYPPAVEPAFLEIRQGQDRSVTMSCRVLRAYPIRVLTYEWRLGNKLLRTGQFDSQEYTEYAVKSLSNENYGVYNCSIINEAGAGRCSFLVTGKAYAPEFYYDTYNPVWQNRHRVYSYSLQWTQMNPDAVDRIVAYRLGIRQAGQQRWWEQEIKINGNIQKGELITYNLTELIKPEAYEVRLTPLTKFGEGDSTIRVIKYSAPVNPHLREFHCGFEDGNICLFTQDDTDNFDWTKQSTATRNTKYTPNTGPNADRSGSKEGFYMYIETSRPRLEGEKARLLSPVFSIAPKNPYGPTNTAYCFSFFYHMYGQHIGVLNVYLRLKGQTTIENPLWSSSGNKGQRWNEAHVNIYPITSFQLIFEGIRGPGIEGDIAIDDVSIAEGECAKQDLATK
Consider B2, for which the fold weaker than with NL1(–A–B) (ECTO) in experiment [1] was determined as 7 fold. Besides, the Kd in experiment [2] was determined as 1 µM.

The values above are taken from article PMC5563082.
